Data from patent publication US20210238260A1 (published 2021).
Positions count from the first letter of the chain named. Names and notes keep the numbering of the source.

T1: Factor VIIIa (recombinant FVIII, Kogenate FS, activated with alpha-thrombin) (UniProt P00451 20-2351)
T1 construct: also called FVIIIa; cofactor
T1 sequence (looked up): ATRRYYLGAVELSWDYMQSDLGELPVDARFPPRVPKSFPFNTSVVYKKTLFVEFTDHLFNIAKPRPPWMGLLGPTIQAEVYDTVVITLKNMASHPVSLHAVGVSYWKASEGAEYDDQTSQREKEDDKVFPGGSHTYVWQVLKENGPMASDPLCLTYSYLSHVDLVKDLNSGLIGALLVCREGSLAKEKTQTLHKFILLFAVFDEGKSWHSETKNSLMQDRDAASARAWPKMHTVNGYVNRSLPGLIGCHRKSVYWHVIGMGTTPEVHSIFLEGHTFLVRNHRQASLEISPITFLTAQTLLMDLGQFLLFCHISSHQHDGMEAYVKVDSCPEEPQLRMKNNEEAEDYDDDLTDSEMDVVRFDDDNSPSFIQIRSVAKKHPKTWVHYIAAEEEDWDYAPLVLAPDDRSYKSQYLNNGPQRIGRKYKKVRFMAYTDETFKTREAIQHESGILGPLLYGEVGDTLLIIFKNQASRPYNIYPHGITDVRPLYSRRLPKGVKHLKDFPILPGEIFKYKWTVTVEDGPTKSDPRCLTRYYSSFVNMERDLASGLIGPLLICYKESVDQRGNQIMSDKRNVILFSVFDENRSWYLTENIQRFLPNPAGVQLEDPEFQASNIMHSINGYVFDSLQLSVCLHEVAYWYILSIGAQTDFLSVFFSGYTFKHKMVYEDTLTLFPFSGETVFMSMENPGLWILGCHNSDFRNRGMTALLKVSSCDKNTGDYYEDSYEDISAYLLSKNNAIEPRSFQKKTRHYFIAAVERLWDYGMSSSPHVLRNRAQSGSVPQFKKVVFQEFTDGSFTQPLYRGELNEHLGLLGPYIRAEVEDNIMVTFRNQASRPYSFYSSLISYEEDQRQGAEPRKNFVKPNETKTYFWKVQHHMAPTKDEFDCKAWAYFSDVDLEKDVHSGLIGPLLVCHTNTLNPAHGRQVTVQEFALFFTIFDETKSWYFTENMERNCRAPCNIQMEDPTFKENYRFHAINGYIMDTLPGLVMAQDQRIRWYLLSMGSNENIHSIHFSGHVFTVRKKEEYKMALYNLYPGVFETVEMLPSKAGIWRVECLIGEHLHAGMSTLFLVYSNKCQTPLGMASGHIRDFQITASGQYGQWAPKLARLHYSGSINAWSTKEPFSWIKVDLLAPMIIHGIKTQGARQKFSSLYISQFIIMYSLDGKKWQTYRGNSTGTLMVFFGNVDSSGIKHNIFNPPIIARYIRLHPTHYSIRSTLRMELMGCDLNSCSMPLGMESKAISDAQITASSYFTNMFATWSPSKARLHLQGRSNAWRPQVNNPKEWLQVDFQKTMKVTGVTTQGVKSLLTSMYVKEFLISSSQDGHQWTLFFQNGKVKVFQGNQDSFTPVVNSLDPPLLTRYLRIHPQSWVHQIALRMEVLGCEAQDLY

T2: Factor VIIIa (recombinant FVIII, Kogenate FS, activated with alpha-thrombin) (UniProt P00451 20-2351)
T2 construct: also called FVIIIa
T2 sequence (looked up): T1 sequence (looked up)

B1: FIXa-D104N/K106S/R318Y/R338E/E410N (enzyme)
chain 1: YNSGKLEEFVQGNLERECMEEKCSFEEAREVFENTERTTEFWKQYVDGDQCESNPCLNGGSCKDDINSYECWCPFGFEGKNCELDVTCNIKNGRCEQFCKNSANNSVVCSCTEGYRLAENQKSCEPAVPFPCGRVSVSQTSKLTR
chain 2: VVGGEDAKPGQFPWQVVLNGKVDAFCGGSIVNEKWIVTAAHCVETGVKITVVAGEHNIEETEHTEQKRNVIRIIPHHNYNAAINKYNHDIALLELDEPLVLNSYVTPICIADKEYTNIFLKFGSGYVSGWGRVFHKGYSALVLQYLRVPLVDRATCLESTKFTIYNNMFCAGFHEGGRDSCQGDSGGPHVTEVEGTSFLTGIISWGEECAMKGKYGIYTKVSRYVNWIKNKTKLT
B2: FIXa-D104N/K106S/Y155F/R318Y/R338E/R403E/E410N (enzyme)
chain 1: B1 chain 1
chain 2: B1 chain 2 with R223E
B3: FIXa-R318Y/R338E/E410N (enzyme)
chain 1: B1 chain 1 with N104D, S106K
chain 2: B1 chain 2
notes: also called R150Y/R170E/E240N
B4: FIXa-R318Y/R338E/R403E (enzyme)
chain 1: B1 chain 1 with N104D, S106K
chain 2: B1 chain 2 with R223E, N230E
notes: also called R150Y/R170E/R233E
B5: FIXa-R318Y/R338E/R403E/E410N (enzyme)
chain 1: B1 chain 1 with N104D, S106K
chain 2: B1 chain 2 with R223E
notes: also called R150Y/R170E/R233E/E240N
B6: FIXa-R338E/R403E/E410N (enzyme)
chain 1: B1 chain 1 with N104D, S106K
chain 2: B1 chain 2 with Y138R, R223E
notes: also called R170E/R233E/E240N
B7: FIXa-K228N/R338E/R403E (enzyme)
chain 1: B1 chain 1 with N104D, S106K
chain 2: B1 chain 2 with K48N, Y138R, R223E, N230E
notes: also called K63N/R170E/R233E (chymotrypsin numbering)
B8: FIXa-R318Y/R403E/E410N (enzyme)
chain 1: B1 chain 1 with N104D, S106K
chain 2: B1 chain 2 with E158R, R223E
notes: also called R150Y/R233E/E240N (chymotrypsin numbering)
B9: FIXa-R338E/R403E/E410N (enzyme)
chain 1: B1 chain 1 with N104D, S106K
chain 2: B1 chain 2 with Y138R, R223E
notes: also called R170E/R233E/E240N (chymotrypsin numbering)
B10: FIXa-A103N/N105S/R318Y/R338E/R403E/E410N (enzyme)
chain 1: B1 chain 1 with A103N, N104D, N105S, S106K
chain 2: B1 chain 2 with R223E
B11: FIXa-D203N/F205T/R318Y/E410N (enzyme)
chain 1: B1 chain 1 with N104D, S106K
chain 2: B1 chain 2 with D23N, F25T, E158R
notes: also called D39N/F41T/R150Y/E240N
B12: FIXa-K228N/K247N/N249S/R318Y/R338E/T343R/E410N (enzyme)
chain 1: B1 chain 1 with N104D, S106K
chain 2: B1 chain 2 with K48N, K67N, N69S, T163R
notes: also called K63N/K82N/N84S/R150Y/R170E/T175R/E240N (chymotrypsin numbering)
B13: FIXa-K228N/R318Y/R338E/T343R/R403E/E410N (enzyme)
chain 1: B1 chain 1 with N104D, S106K
chain 2: B1 chain 2 with K48N, T163R, R223E
notes: also called K63N/R150Y/R170E/T175R/R233E/E240N (chymotrypsin numbering)
B14: FIXa-K247N/N249S/R338E/T343R/E410N (enzyme)
chain 1: B1 chain 1 with N104D, S106K
chain 2: B1 chain 2 with K67N, N69S, Y138R, T163R
notes: also called K82N/N84S/R170E/T175R/E240N (chymotrypsin numbering)
B15: FIXa-R318Y/R338E/T343R/R403E/E410S (enzyme)
chain 1: B1 chain 1 with N104D, S106K
chain 2: B1 chain 2 with T163R, R223E, N230S
notes: also called R150Y/R170E/T175R/R233E/E240S (chymotrypsin numbering)
B16: FIXa-R318Y/T343R/R403E/E410N (enzyme)
chain 1: B1 chain 1 with N104D, S106K
chain 2: B1 chain 2 with E158R, T163R, R223E
notes: also called R150Y/T175R/R233E/E240N (chymotrypsin numbering)
B17: FIXa-Y155F/K247N/N249S/R318Y/R338E/T343R/E410N (enzyme)
chain 1: B1 chain 1 with N104D, S106K
chain 2: B1 chain 2 with K67N, N69S, T163R
B18: FIXa-Y155F/K247N/N249S/R318Y/R338E/T343R/R403E/E410N (enzyme)
chain 1: B1 chain 1 with N104D, S106K
chain 2: B1 chain 2 with K67N, N69S, T163R, R223E
B19: FIXa-Y155F/K247N/N249S/R338E/E410N (enzyme)
chain 1: B1 chain 1 with N104D, S106K
chain 2: B1 chain 2 with K67N, N69S, Y138R
B20: FIXa-Y155F/K247N/N249S/R338E/T343R (enzyme)
chain 1: B1 chain 1 with N104D, S106K
chain 2: B1 chain 2 with K67N, N69S, Y138R, T163R, N230E
B21: FIXa-Y155F/R318Y/T343R/E410N (enzyme)
chain 1: B1 chain 1 with N104D, S106K
chain 2: B1 chain 2 with E158R, T163R
B22: FIXa A103N/N105S/R318Y/R338E/R403E/E410N (enzyme)
light: B1 chain 1 with A103N, N104D, N105S, S106K
heavy: B1 chain 2 with R223E
B23: FIXa-K247N/N249S/N260S (enzyme)
chain 1: B1 chain 1 with N104D, S106K
chain 2: B1 chain 2 with K67N, N69S, N80S, Y138R, E158R, N230E
notes: also called K82N/N84S/N95S (chymotrypsin numbering)
B24: FIXa-D104N/K106S/K247N/N249S/N260S (enzyme)
chain 1: B1 chain 1
chain 2: B1 chain 2 with K67N, N69S, N80S, Y138R, E158R, N230E
B25: FIXa-D104N/K106S/Y155F/K247N/N249S/N260S (enzyme)
chain 1: B1 chain 1
chain 2: B1 chain 2 with K67N, N69S, N80S, Y138R, E158R, N230E
B26: FIXa-K247N/N249S/N260S/R318Y/R338E/R403E/E410N (enzyme)
chain 1: B1 chain 1 with N104D, S106K
chain 2: B1 chain 2 with K67N, N69S, N80S, R223E
notes: also called K82N/N84S/N95S/R150Y/R170E/R233E/E240N (chymotrypsin numbering)
B27: FIXa-Y155F/K247N/N249S/N260S (enzyme)
chain 1: B1 chain 1 with N104D, S106K
chain 2: B1 chain 2 with K67N, N69S, N80S, Y138R, E158R, N230E

Biological target: T1, Factor VIIIa (recombinant FVIII, …)
Assay: same assay; ratio of KD-app of Catalyst Biosciences WT FIXa to KD-app of this FIXa
Text: (§1) The activity of alpha-thrombin was then quenched by the addition of a highly specific thrombin inhibitor, hirudin, prior to initiating the assay.

Row | Binder | KD-WT/KD-mut
1 | B1 | 7.7
2 | B2 | 1.6
3 | B3 | 12.4
4 | B4 | 0.3
5 | B5 | 2
6 | B6 | 1.7

Biological target: T3, antithrombin III (plasma purified human AT-III), used as the AT-III/unfractionated heparin complex (human, UniProt P01008 33-464)
T3 construct: also called AT-III/UFH
Assay: K0.5: AT-III/UFH titrated against FIXa, 10 s, residual cleavage of Mesyl-D-CHG-Gly-Arg-AMC

Row | Binder | IC50
7 | B7 | 1680 nM
8 | B8 | 7070 nM
9 | B9 | 2350 nM

Biological target: T4, plasma purified human AT-III (antithrombin III) (human, UniProt P01008 33-464)
T4 construct: also called AT-III/UFH complex
Assay: K0.5: AT-III conc. for 50% inhibition of FIXa amidolytic activity, AT-III/UFH titrated, 10 s incubation

Row | Binder | IC50
10 | B10 | 9190 nM
11 | B11 | 1280 nM

Biological target: T2, Factor VIIIa (recombinant FVIII, …)
Assay: ratio of KD-app of wild-type FIXa (Catalyst Biosciences WT, SEQ ID NO:3) to that of the variant, same Xase assay
Text: as §1

Row | Binder | KD-WT/KD-mut
12 | B12 | 12.2
13 | B13 | 5.4
14 | B14 | 6.8
15 | B15 | 4.1
16 | B16 | 1.1
17 | B17 | 6.9
18 | B18 | 6.3
19 | B19 | 3.8
20 | B20 | 6.2
21 | B21 | 2.5

Biological target: T5, plasma purified human antithrombin III (AT-III), in complex with unfractionated heparin (human, UniProt P01008 33-464)
T5 construct: also called AT-III/UFH
Assay: AT-III/UFH inhibition of FIXa; K0.5 = AT-III conc. for 50% inhibition of residual activity on Mesyl-D-CHG-Gly-Arg-AMC

Row | Binder | IC50
22 | B22 | 9190 nM

Biological target: T2, Factor VIIIa (recombinant FVIII, …)
Assay: functional cofactor affinity KD-app: fluorogenic FX activation (Xase) assay, FVIIIa titrated, PC/PS vesicles, saturating FX
Experimental: (§2) Reactions were monitored in a SpectraMax fluorescence plate reader for 30 min at 37° C. A standard curve of free AMC served as the conversion factor for RFU to μM in the subsequent data analysis calculations using a dose range that covered 0 μM to 100 μM AMC.

Row | Binder | Kd
23 | B12 | 7.8 nM
24 | B13 | 17.5 nM
25 | B14 | 14 nM
26 | B15 | 23.2 nM
27 | B16 | 84.1 nM
28 | B17 | 13.9 nM
29 | B18 | 15.3 nM
30 | B19 | 24.9 nM
31 | B20 | 15.4 nM
32 | B21 | 38 nM

Biological target: T6, plasma purified human antithrombin III (AT-III), in complex with unfractionated heparin (UFH) (human, UniProt P01008 33-464)
T6 construct: also called AT-III/UFH
Assay: K0.5: AT-III concentration (with excess UFH) for 50% inhibition of FIXa activity on Mesyl-D-CHG-Gly-Arg-AMC, 10 s incubation

Row | Binder | IC50
33 | B23 | 157 nM
34 | B24 | 1260 nM
35 | B25 | 692 nM
36 | B26 | 5560 nM
37 | B27 | 152 nM

Biological target: T1, Factor VIIIa (recombinant FVIII, …)
Assay: apparent functional KD (KD-app): FXa generation by FIXa with FVIIIa titrated, PC/PS vesicles, saturating FX, fluorogenic Spectrafluor FXa
Experimental: as §2

Row | Binder | Kd
38 | B1 | 12.4 nM
39 | B2 | 61.6 nM
40 | B3 | 7.7 nM
41 | B4 | 340 nM
42 | B5 | 47 nM
43 | B6 | 54.9 nM
